Test results reported in ChEMBL document CHEMBL4342470, “Detection of Active Granzyme A in NK92 Cells with Fluorescent Activity-Based Probe” (J Med Chem, 2020).

Legend:
Settings in all cases: Homo sapiens; call rule not given here
[1] = substrate: CC[C@H](C)[C@H](NC(C)=O)C(=O)NCC(=O)N1CCC[C@H]1C(=O)N[C@@H](CCCNC(=N)N)C(=O)Nc1ccc2c(CC(N)=O)cc(=O)oc2c1; experiment: (§1) Substrate activity at Granzyme A (unknown origin) expressed in Pichia pastoris incubated for 30 mins by fluorescence based assay
[2] = substrate: CC(=O)N1Cc2ccccc2C[C@H]1C(=O)NCC(=O)N1C2CCCCC2C[C@H]1C(=O)N[C@@H](CCCNC(=N)N)C(=O)Nc1ccc2c(CC(N)=O)cc(=O)oc2c1; experiment: as §1
[3] = substrate: CC(=O)N1Cc2ccccc2C[C@H]1C(=O)NCC(=O)N1C2CCCCC2C[C@H]1C(=O)N[C@@H](CCCNC(=N)N)C(=O)Nc1ccc2c(CC(N)=O)cc(=O)oc2c1; experiment: Substrate activity at Granzyme K (unknown origin) expressed in Pichia pastoris incubated for 30 mins by fluorescence based assay

| Protein | Km [1] | kcat [1] | kcat/Km [1] | Km [2] | kcat [2] | kcat/Km [2] | Km [3] | kcat [3] | kcat/Km [3] |
| --- | --- | --- | --- | --- | --- | --- | --- | --- | --- |
| Granzyme A (Homo sapiens), P12544 (protein) MRNSYRFLASSLSVVVSLLLIPEDVCEKIIGGNEVTPHSRPYMVLLSLDRKTICAGALIAKDWVLTAAHCNLNKRSQVILGAHSITREEPTKQIMLVKKEFPYPCYDPATREGDLKLLQLMEKAKINKYVTILHLPKKGDDVKPGTMCQVAGWGRTHNSASWSDTLREVNITIIDRKVCNDRNHYNFNPVIGMNMVCAGSLRGGRDSCNGDSGSPLLCEGVFRGVTSFGLENKCGDPRGPGVYILLSKKHLNWIIMTIKGAV | 450 µM | 0.035 s⁻¹ | 78 M⁻¹ s⁻¹ | 87.4 µM | 0.27 s⁻¹ | 3100 M⁻¹ s⁻¹ |  |  |  |
| Granzyme K (Homo sapiens), P49863 (protein) MTKFSSFSLFFLIVGAYMTHVCFNMEIIGGKEVSPHSRPFMASIQYGGHHVCGGVLIDPQWVLTAAHCQYRFTKGQSPTVVLGAHSLSKNEASKQTLEIKKFIPFSRVTSDPQSNDIMLVKLQTAAKLNKHVKMLHIRSKTSLRSGTKCKVTGWGATDPDSLRPSDTLREVTVTVLSRKLCNSQSYYNGDPFITKDMVCAGDAKGQKDSCKGDSGGPLICKGVFHAIVSGGHECGVATKPGIYTLLTKKYQTWIKSNLVPPHTN |  |  |  |  |  |  | Not Active | Not Active | Not Active |
